From paper doi:10.1101/2025.08.05.667158 come the findings set out here.

The target in experiment [1] is IR-A in cell membranes of human IM-9 lymphocytes (human (endogenous in IM-9)) (UniProt P06213). As to the kind of experiment: radioligand binding.
The target in experiment [2] is human IR-A ECD construct (residues 1-917) (human). Description: cryo-EM structure.

For orientation: Kd means the constant that tells how readily two partners part at equilibrium. A higher Kd goes with a looser complex.

For the substance S661 peptide, the Kd in experiment [1] was 2.6 nM. Moreover, the stoichiometry N (per IR-ECD dimer) in experiment [2] came to 2.
